Measurements from US20220041691A1, “METHODS FOR DIAGNOSING OR TREATING POST-TRAUMATIC STRESS DISORDER, AND COMPOSITIONS THEREFOR” (Centre for Addiction and Mental Health, priority 2018, published 2022).
Where a chain is given by its changes, count along the chain named. Names may count otherwise. Like-named read-outs stand apart in the source and are kept apart here. Values belong to the molecule of their own block, whether it stands above or below them. Ends that are not written are not given here.

What was measured:
GR = target: T1, GR (Mus musculus, UniProt P06537); assay: GST pull-down of GR by GST-FKBP51 fragments in mouse brain tissue; type: binding
T1 construct: from tissue; host or cells: mouse brain
T1 sequence (P06537 1-792): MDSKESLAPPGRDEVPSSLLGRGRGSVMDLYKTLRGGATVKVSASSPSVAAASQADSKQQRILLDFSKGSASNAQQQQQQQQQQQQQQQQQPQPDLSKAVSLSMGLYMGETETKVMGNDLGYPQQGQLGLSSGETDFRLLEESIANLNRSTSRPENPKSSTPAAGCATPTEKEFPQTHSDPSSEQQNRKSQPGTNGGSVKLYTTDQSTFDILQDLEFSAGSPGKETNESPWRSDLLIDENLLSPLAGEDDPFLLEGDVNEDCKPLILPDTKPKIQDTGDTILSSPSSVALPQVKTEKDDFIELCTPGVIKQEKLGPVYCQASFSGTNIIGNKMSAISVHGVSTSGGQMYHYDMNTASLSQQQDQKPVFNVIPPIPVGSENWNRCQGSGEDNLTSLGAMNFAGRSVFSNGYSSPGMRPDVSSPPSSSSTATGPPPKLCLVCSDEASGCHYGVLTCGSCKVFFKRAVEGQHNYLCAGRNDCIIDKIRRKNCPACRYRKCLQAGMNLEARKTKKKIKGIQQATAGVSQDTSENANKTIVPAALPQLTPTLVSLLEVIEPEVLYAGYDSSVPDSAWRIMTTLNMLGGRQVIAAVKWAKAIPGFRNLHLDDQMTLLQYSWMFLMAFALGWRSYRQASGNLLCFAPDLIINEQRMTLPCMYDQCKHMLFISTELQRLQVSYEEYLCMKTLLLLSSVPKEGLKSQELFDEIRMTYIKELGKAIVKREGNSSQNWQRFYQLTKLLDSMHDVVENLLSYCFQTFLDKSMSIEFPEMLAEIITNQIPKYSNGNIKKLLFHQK
Excerpt: The present inventors identified that if increased GR-FKBP51 complex levels are part of the pathophysiology of PTSD, then disrupting the complex may rescue behaviors related to PTSD. To develop an agent (in this example, a peptide-based agent) capable of blocking the GR-FKBP51 interaction, experiments were first performed to identify the regions of the GR that are important to bind FKBP51 (and vice versa). Initially, GST-fusion proteins were used encoding the amino-terminus (NT) of GR (GRNT) and the carboxyl-terminus (CT) of GR (GRCT) for affinity purification. […] Extending this strategy, GRNT fragments were examined (see FIG. 8, where the 6 tested GRNT fragments, NT-1, NT-2, NT-3, NT-4, NT-5, and NT-6 are shown). […] Similarly, it was determined that the TPR (tetratricopeptide repeat) domains of FKBP51 bind GR (FIG. 2D). In these studies, GST-fusion proteins of 3 different portions of the FKBP51 protein were prepared (FK1, FK2, and TPR, see FIG. 9) and tested. The TPR fragment was identified as containing the relevant interaction region.
GST-fusion proteins encoding truncated GR fragments were amplified by PCR from full-length human cDNA clones. All constructs were sequenced to confirm the absence of PCR-generated errors. […]

FKBP51-TPR = target: T2, FKBP51-TPR (Homo sapiens, UniProt Q13451); assay: Surface plasmon resonance, binding of FKBP51 TPR domain to GR and its phosphorylation mutants; conditions: Flag-tagged GR immobilized on sensor chip, 25° C.
T2 construct: made in house; host or cells: bacteria
T2 sequence (Q13451 258-457): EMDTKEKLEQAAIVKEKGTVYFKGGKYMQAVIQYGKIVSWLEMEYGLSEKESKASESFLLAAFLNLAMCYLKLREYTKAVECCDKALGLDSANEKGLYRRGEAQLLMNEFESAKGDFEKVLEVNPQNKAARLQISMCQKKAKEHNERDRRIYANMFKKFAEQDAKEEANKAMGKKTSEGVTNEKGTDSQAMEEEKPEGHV
Procedure: The binding of FKBP51 TPR domain to GR and its phosphorylation mutants was determined by surface plasmon resonance using a Reichert SR7500DC instrument. Experiments were conducted at 25° C. with 2000 RU HEK293 expressed FLAG-tagged GR bound onto a FLAG antibody-coated Dextran 50,000 Da chip. Running buffer (PBS, pH 7.4 with 0.005% Tween 20) was used with a flow rate of 25 μl/min. With association time of 300s and dissociation of 240s, binding signals were determined by injecting various concentrations of the GST-FKBP51_TPR.

GFP-FKBP51 = target: T3, GFP-FKBP51 (Homo sapiens, UniProt Q13451); assay: Co-immunoprecipitation of Flag-GR (WT, S211A, S211E) with GFP-FKBP51 in transfected HEK293T cells; type: cell-based; conditions: HEK293T cells transfected with GR variant and GFP-FKBP51, n=3
T3 sequence (Q13451 1-457): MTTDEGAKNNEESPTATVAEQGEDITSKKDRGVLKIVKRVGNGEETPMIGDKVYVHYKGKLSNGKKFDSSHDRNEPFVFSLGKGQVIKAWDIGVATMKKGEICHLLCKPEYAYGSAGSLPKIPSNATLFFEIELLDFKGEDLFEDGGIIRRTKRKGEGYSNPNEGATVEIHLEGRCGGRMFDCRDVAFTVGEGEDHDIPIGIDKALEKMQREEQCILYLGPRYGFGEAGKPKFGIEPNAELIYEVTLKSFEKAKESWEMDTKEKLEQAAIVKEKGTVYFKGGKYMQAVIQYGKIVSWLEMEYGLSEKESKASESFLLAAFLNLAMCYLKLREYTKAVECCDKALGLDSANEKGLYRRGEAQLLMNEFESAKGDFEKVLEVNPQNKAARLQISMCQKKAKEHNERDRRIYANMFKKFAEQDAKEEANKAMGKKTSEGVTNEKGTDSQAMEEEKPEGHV
Excerpt: Thus, it was investigated whether the increased GR-FKBP51 seen in fear-conditioned mice and PTSD patients was associated with altered GR S211 phosphorylation. […] Similar results were also seen in samples from PTSD patients (FIG. 5C n=12, p<0.05, t-test). To probe further into how S211 phosphorylation and GR-FKBP51 are related, two GR mutants were generated (see SEQ ID NOs: 10 (S211A) and 11 (S211E) of FIG. 10). S211A is a non-phosphorylated GR mutant and S211E is phosphomimetic GR mutant.
HEK293T cells were maintained as a monolayer culture at 37° C. in Dulbecco's Modified Eagle Medium (DMEM) (Invitrogen) supplemented with 10% fetal bovine serum (Gibco). Cells were grown to 90% confluence before being transiently transfected with DNA constructs by X-treme GENE 9 transfection reagent (Roche), following the manufacturer's instructions. About 24-48 hrs after transfection, cells were used for experiments.
Co-immunoprecipitation and Western blot analyses were performed as previously described.^24, 25, 26 For co-immunoprecipitation, 500˜1000 μg solubilized protein was extracted from whole mouse brain and incubated with primary antibody or control IgG (2˜4 μg) for 4 hrs at 4° C., followed by the addition of 25 μl protein A/G plus agarose (Santa Cruz Biotechnology) for 12 hrs. Pellets were washed, boiled for 5 min in SDS sample buffer and subjected to SDS-PAGE. 50˜100 μg of total protein extract was used as control in each experiment. After transfer of proteins into nitrocellulose, membranes were Western blotted with the primary antibodies. The intensity of protein level was quantified by densitometry (software: ImageLab, Bio-Rad).
Mutants of Flag-GR and GST-GR-NT were created with the QuickChange site-directed mutagenesis kit (Stratagene, La Jolla, Calif.). All mutants were confirmed by DNA sequencing.

[1] = read-out: KD for binding FKBP51 (SPR)

pull-down of GR by GST-FKBP51 fragment, Western blot (GR): can “pull-down”
Molecule: GST-TPR3: GST-fusion protein of FKBP51 TPR fragment 3 (GEAQLLMNEFESAKGDFEKVLEVNPQNKAARLQISMCQKKAKEHNERDRR; also: GST fusion protein)

pull-down of GR by GST-FKBP51 fragment, Western blot (GR): can “pull-down”
B1: GST-TPR: GST-fusion protein of FKBP51 tetratricopeptide repeat (TPR) domain (protein)
chain: T2 sequence (Q13451 258-457)
modifications: left off: a dimerising Fc or GST
notes: GST-fusion protein of FKBP51 tetratricopeptide repeat (TPR) domain

Kd (FKBP51-TPR; [1]): 0.412 µM
GR-FKBP51 complex level (Flag-GR co-immunoprecipitated with GFP-FKBP51) compared to wild-type GR (GFP-FKBP51): significantly higher
GR-FKBP51 complex level (Flag-GR co-immunoprecipitated with GFP-FKBP51) compared to wild-type GR (GFP-FKBP51; listed as S211A-GR): higher levels of the GR-FKBP51 complex
B2: S211A GR: non-phosphorylated GR mutant, Flag-tagged (protein)
chain: MDSKESLTPGREENPSSVLAQERGDVMDFYKTLRGGATVKVSASSPSLAVASQSDSKQRRLLVDFPKGSVSNAQQPDLSKAVSLSMGLYMGETETKVMGNDLGFPQQGQISLSSGETDLKLLEESIANLNRSTSVPENPKSSASTAVSAAPTEKEFPKTHSDVSSEQQHLKGQTGTNGGNVKLYTTDQSTFDILQDLEFSSGSPGKETNEAPWRSDLLIDENCLLSPLAGEDDSFLLEGNSNEDCKPLILPDTKPKIKDNGDLVLSSPSNVTLPQVKTEKEDFIELCTPGVIKQEKLGTVYCQASFPGANIIGNKMSAISVHGVSTSGGQMYHYDMNTASLSQQQDQKPIFNVIPPIPVGSENWNRCQGSGDDNLTSLGTLNFPGRTVFSNGYSSPSMRPDVSSPPSSSSTATTGPPPKLCLVCSDEASGCHYGVLTCGSCKVFFKRAVEGQHNYLCAGRNDCIIDKIRRKNCPACRYRKCLQAGMNLEARKTKKKIKGIQQATTGVSQETSENPGNKTIVPATLPQLTPTLVSLLEVIEPEVLYAGYDSSVPDSTWRIMTTLNMLGGRQVIAAVKWAKAIPGFRNLHLDDQMTLLQYSWMFLMAFALGWRSYRQSSANLLCFAPDLIINEQRMTLPCMYDQCKHMLYVSSELHRLQVSYEEYLCMKTLLLLSSVPKDGLKSQELFDEIRMTYIKELGKAIVKREGNSSQNWQRFYQLTKLLDSMHEVVENLLNYCFQTFLDKTMSIEFPEMLAEIITNQIPKYSNGNIKKLLFHQK
modifications: Flag tag; Amino Acid Sequence of S211A GR Mutant (non-phosphorylated GR mutant)
notes: non-phosphorylated GR mutant, Flag-tagged

Kd (FKBP51-TPR; figure legend values, read-out: KD for binding FKBP51-TPR (SPR)): 3.9 µM
Kd (FKBP51-TPR; [1]): 3.9 ± 0.01 µM
GR-FKBP51 complex level (Flag-GR co-immunoprecipitated with GFP-FKBP51) compared to wild-type GR (GFP-FKBP51): no significant difference
B3: S211E GR: phosphomimetic GR mutant, Flag-tagged (protein)
chain: B2 chain with A211E
modifications: Flag tag; Amino Acid Sequence of S211E GR Mutant (phosphomimetic GR mutant)
notes: phosphomimetic GR mutant, Flag-tagged
